Measured values as given in US10613105 (FRAUNHOFER GESELLSCHAFT ZUR FORDERUNG DER ANGEWANDTEN …, dated 2020).

target: TLR4 receptor complex expressed in the NIH 3T3 pNifty SEAP TLR4/CD14 reporter cell line; test: cell-based or functional assay
Sequence (O00206 24-839, chain 1 of 2): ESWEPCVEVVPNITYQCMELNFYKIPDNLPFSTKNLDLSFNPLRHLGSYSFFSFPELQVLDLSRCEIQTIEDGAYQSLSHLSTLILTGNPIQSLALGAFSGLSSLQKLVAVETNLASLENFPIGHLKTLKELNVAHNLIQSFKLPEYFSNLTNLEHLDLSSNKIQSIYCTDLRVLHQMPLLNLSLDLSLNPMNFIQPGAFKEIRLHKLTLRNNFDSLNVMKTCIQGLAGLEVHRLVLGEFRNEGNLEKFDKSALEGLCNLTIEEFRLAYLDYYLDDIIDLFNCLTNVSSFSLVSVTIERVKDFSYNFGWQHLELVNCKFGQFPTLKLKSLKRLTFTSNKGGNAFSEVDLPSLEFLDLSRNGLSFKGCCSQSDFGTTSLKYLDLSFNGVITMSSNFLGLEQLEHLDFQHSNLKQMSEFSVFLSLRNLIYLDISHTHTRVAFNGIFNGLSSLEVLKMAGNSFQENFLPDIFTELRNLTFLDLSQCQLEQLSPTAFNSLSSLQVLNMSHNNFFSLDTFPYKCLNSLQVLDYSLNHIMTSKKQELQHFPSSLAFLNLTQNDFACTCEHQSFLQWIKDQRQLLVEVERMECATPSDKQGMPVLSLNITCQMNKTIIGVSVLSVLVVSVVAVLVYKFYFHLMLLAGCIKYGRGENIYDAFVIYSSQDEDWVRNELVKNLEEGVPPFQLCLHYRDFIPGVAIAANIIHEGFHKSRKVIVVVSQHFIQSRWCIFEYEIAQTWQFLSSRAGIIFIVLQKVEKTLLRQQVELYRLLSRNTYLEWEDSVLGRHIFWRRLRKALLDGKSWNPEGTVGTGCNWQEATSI
Sequence (P08571 20-345, chain 2 of 2, further chain): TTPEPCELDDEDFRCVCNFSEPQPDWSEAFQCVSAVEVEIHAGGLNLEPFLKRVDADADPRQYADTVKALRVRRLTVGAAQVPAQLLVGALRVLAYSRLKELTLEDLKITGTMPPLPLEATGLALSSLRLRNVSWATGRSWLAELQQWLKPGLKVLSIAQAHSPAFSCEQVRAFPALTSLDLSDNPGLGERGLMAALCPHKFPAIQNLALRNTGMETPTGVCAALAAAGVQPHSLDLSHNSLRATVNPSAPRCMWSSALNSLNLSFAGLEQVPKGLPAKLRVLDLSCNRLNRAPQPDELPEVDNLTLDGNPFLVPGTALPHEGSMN

IC50 in the PAMP assay (SEAP reporter, NIH 3T3 pNifty SEAP TLR4/CD14 cells), > 200 mM:
KRKEVICRGSDDDYSFCRAL [KRKEVICRGSDDDYSFCRAL peptide (SEQ ID NO: 4)]
GLLHIFYIPRRDLKQLYFNL [GLLHIFYIPRRDLKQLYFNL peptide (SEQ ID NO: 3)]
KMQYPISINVNPCIELKGSK [KMQYPISINVNPCIELKGSK peptide (SEQ ID NO: 2)]
KGETVNTTISFSFKGIKFSK [KGETVNTTISFSFKGIKFSK peptide (SEQ ID NO: 1)]
